Key:
chd1_human CHD1 [1] = biological target: chd1_human CHD1 (UniProt O14646)
chd1_human CHD1 [2] = biological target: chd1_human CHD1 (UniProt O14646); remark: listed apart in the source

Sequence of UniProt O14646 (O14646 whole entry): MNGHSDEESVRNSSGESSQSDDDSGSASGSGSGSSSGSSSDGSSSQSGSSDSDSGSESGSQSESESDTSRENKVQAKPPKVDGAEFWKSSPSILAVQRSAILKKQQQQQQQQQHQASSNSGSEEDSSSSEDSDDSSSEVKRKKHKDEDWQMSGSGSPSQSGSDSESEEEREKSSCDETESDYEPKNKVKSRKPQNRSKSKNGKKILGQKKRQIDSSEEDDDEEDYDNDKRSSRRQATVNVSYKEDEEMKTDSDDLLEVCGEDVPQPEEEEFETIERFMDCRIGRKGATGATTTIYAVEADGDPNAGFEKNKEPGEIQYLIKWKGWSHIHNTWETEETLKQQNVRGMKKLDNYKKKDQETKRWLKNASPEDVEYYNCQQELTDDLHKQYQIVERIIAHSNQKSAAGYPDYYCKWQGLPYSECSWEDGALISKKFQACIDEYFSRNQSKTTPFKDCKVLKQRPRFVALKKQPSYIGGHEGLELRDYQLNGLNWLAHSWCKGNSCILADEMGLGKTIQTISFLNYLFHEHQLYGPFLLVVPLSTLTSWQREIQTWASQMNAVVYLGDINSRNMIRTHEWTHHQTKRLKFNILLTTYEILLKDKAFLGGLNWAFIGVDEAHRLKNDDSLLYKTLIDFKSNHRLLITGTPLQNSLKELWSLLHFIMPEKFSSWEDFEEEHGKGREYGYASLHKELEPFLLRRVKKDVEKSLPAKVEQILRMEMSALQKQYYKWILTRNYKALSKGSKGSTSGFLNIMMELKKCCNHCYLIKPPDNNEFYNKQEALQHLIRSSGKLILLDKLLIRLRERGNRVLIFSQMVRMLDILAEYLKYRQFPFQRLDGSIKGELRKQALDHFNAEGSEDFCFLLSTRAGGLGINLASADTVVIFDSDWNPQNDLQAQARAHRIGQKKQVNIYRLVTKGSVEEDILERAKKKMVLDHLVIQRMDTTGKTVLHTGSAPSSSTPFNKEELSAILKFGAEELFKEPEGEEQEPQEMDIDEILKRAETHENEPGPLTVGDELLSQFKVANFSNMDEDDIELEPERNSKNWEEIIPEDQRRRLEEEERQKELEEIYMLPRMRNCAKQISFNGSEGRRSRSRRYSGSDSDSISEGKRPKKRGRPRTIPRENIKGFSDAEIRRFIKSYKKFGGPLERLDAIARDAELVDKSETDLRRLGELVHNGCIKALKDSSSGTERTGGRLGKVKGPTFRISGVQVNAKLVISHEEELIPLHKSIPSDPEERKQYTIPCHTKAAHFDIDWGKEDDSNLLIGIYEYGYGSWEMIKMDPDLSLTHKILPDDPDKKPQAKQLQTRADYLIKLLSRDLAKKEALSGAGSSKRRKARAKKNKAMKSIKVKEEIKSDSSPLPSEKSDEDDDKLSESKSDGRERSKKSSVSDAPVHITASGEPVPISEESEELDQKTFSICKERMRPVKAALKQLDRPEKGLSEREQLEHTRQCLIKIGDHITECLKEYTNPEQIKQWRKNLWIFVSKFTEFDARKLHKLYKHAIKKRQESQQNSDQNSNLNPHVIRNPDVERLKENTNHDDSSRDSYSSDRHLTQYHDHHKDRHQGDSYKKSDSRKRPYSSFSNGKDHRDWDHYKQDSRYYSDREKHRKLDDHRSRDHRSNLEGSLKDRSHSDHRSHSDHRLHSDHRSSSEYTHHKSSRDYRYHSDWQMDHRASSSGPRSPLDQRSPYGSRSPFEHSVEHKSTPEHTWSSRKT

Row | Substance | effect of a mutation on the interaction (chd1_human CHD1 [1]) | effect of a mutation on the interaction (chd1_human CHD1 [2])
1 | Lysine-specific histone demethylase 1A (Homo sapiens) (from UniProt O60341-1) K114A | disrupting interaction strength | 
2 | Lysine-specific histone demethylase 1A (Homo sapiens) (from UniProt O60341-1) R113A |  | disrupting interaction strength

From IntAct's records for PubMed 26751641
